Test results: US8329186B2, “Treatment of inflammation using BST2 inhibitor” (Isu Abxis Co., Ltd, priority 2004, dated 2012)
d = 2'-deoxy (DNA); r = 2'-OH (RNA)

How the values were obtained:
HUVECs and U937 cells = test: Heterotypic aggregation/adhesion between IFN-γ-treated HUVECs and U937 cells; assay type: cell-based, human
Procedure: HUVECs (1−5×10^4 cells/ml) were seeded onto a 12-well cell culture plate. After one day, the medium was exchanged with a low-serum medium containing 0.5% FBS, and the cells were pretreated with interferon-gamma (IFN-γ; Calbiochem) in a final concentration 10 ng/ml for 24 hrs. Then, the pretreated HUVECs were co-cultured with U937 cells (2×10^6 cells/ml, 500 μl) at 37° C. for 4 hrs. The co-culture was washed with phosphate buffer three or four times, and the remaining cells were fixed with 4% paraformaldehyde and microscopically observed.
HUVECs were transfected with an expression vector for Bst2, treated with or without IFN-γ and then transfected with Bst2 siRNA. These cells were assessed for U937 cell adhesion.
(§1) HUVECs were cultured in 12-well plates with or without transfection of Bst2 siRNA or control siRNA for 6 hr, then treated with or without IFNγ for 24 hr. In some experiments, cells were treated with crude media containing Bst2 decoy or mouse anti-human ICAM1 antibodies. After a wash with PBS (phosphate buffered saline), U937 cells were resuspended in serum free medium at 2×10^6 cells/ml. Assays were initiated by the addition of 200 ul U937 cells to HUVEC for a final volume of 1 ml. After 4 hr at 37° C., unbound U937 cells were removed by washing plates three times with PBS. Bound cells were fixed by the addition of 4% paraformaldehyde in PBS, and the bound cells were counted under microscopy in different fields. All statistical analyses were performed in Excel and statistical significance were evaluated with Student's t test. In some experiments, RNA samples were obtained from HUVECs after treatment with IFNγ and/or siRNAs, and real-time polymerase chain reaction (RT-PCR) analyses were performed.

[1] = system: ICAM1 expression or Bst2 expression; test: RT-PCR of Bst2 and ICAM1 expression in IFNγ-treated HUVEC after siRNA; assay type: cell-based, human
Procedure: as §1
RT-PCR analyses were performed.

IL-4, IL-5 and IL-13 = test: Ovalbumin-induced mouse model of asthma: cytokines in lung tissue (immunoblot); assay type: in vivo; conditions: ovalbumin-sensitized asthmatic mice
Procedure: (§2) A mouse model of asthma was prepared by sensitizing mice (C57B6, 8 weeks) with ovalbumin. In detail, mice were initially sensitized for five continuous days by intranasal injection of ovalbumin. After three weeks, mice were intranasally sensitized again with ovalbumin for five continuous days. One week after the secondary sensitization, mice were challenged intranasally with ovalbumin three times every 24 hrs to induce asthma. Herein, a Bst2 decoy was intravenously injected into mice 30 min before sensitization with ovalbumin, and was injected into mice 30 min before the first sensitization and the last injection of ovalbumin. Three days after the last injection, serum samples, lung tissues, and the like were collected from mice.
When a Bst2 or Damp1 decoy was injected into a mouse model of asthma which was induced by sensitization and challenge with ovalbumin, expression levels of cytokines (interleukin-4 (IL-4), interleukin-5 (IL-5) and interleukin-13 (IL-13)) were measured as follows. […] The bound primary antibodies were detected with a HRP-conjugated secondary antibody (anti-rabbit HRP-conjugated IgG) using ECL reagent.
Expression of 11-4, IL-5 and IL-13 was measured in the murine asthma model as described in Example 8-3 after injection with Bst2 decoy or Bst2 decoy Fc fusion proteins.

U937 cells = test: Competitive inhibition of U937 cell binding to Bst2 decoy coated plates; parameters: species or system human; conditions: cells pre-incubated with fusion proteins 2 hrs
Procedure: Competitive inhibition of Fc fusion proteins in the binding between BST2 decoy and cells was measured as follows. Flat-bottomed 96-well plates were coated with Bst2 decoy (50 ug/ml) with sodium bicarbonate (100 mM, pH 9.5) for 2 hrs at 37° C. The plates were washed with PBS (pH 7.4) and incubated with 1% bovine serum albumin (BSA) at 25° C. After a rinse with PBS (pH 7.4) containing 1 mM CaCl2 and 0.5 mM MgCl2, U937 cells (1×10^6/ml) were added to each Bst2-coated well. Before the addition, cells were pre-incubated with BST2 decoy-Fc fusion proteins for 2 hrs at 37° C. Bound cells were counted as described in Example 20.

[2] = In vivo stability of PEG-conjugated Bst2 decoy in rats (ELISA of blood samples); parameters: species or system rat; conditions: tail vein, 0.4 to 2 mg/kg, compared to Bst2 decoy
Procedure: The PEG-conjugated forms of Bst2 decoy, prepared in Example 11-1, were injected into the tail vein of 7 week-old male Sprague-Dawley rats in a dose of 0.4 to 2 mg/kg. A negative control group was injected with an equal dose of physiological saline. Also, an equal dose of Bst2 decoy protein was used as a positive control. Blood samples were collected before drug administration, and 2 min, 5 min, 10 min, 30 min, 1 hr, 2 hrs, 6 hrs, 12 hrs and 24 hrs after drug administration from the jugular vein using a cannula. The collected blood samples were analyzed by ELISA. A 96-well plate was coated with an anti-Bst2 decoy antibody (100 ng/ml in PBS) at 4° C. for 8 hrs or longer, and was blocked with albumin in PBS at 37° C. for 2 hrs. The plate was reacted with a proper dilution of rat serum or Bst2 decoy (standard sample) at 37° C. for 2 hrs. The plate was then reacted with a monoclonal antibody (mAb conjugated with horseradish peroxidase, Roche Inc.) recognizing the histidine tag added to the C-terminus of Bst2 decoy at 37° C. for 2 hrs. After being well washed, the plate was treated with a substance of peroxidase, and absorbance was measured at 450 nm. Quantitation of the PEG-conjugated Bst2 decoys present in blood was performed using the standard samples (FIG. 18). […]

mouse model of asthma = test: Ovalbumin-induced mouse model of asthma: infiltrating cells in bronchoalveolar lavage; assay type: in vivo; conditions: ovalbumin-sensitized mice
Procedure: as §2
A mouse model of asthma was prepared as described in Example 8-1.
The effect of Bst2 decoy-Fc fusions on immune cell infiltration was assessed as described in Example 8-2. When ovalbumin-sensitized mice were treated with a Bst2 decoy, the total number of infiltrating cells was decreased and, especially, the number of neutrophils, eosinophils and lymphocytes except for macrophage was decreased in bronchoalveolar lavage (BAL) (FIG. 27).
A mouse model of asthma was prepared as described in Example 8-1. The effect of anti-Bst2/Damp1 antibodies on immune cell infiltration was assessed as described in Example 8-2. […]

For “Bst2 siRNA: siRNA against Bst2 mRNA target sequence SEQ ID NO:5; sense SEQ ID NO:6, antisense SEQ ID NO:7 (sense UUGUCCGCGAUUCUCACGCTT; antisense GCGUGAGAAUCGCGGACAATT; sugars from the 5' end r19 d2, backbone not given here)”, the “U937 cell adhesion to HUVECs” value (HUVECs and U937 cells; HUVECs transfected with Bst2 expression vector, with or without IFN-γ) was “decreased U937 cell adhesion”, the “cell adhesion between untransfected HUVEC and U937 cells” value (HUVECs and U937 cells; untransfected HUVEC, IFNγ stimulation) was “inhibitory effect” and the ICAM1 expression [1] was “does not affect”.

B1: mouse Damp1 decoy: soluble Damp1 protein fragment having the amino acid sequence of SEQ ID NO:2 (protein, listed as Mus musculus)
chain: FAVTANSVACRDGLRAQAECRNTTHLLQRQLTRTQDSLLQAETQANSCNLTVVTLQESLEKKVSQALEQQARIKELENEVTKLNQELENLRIQKETSSTVQVNS
With B1 the “cell-cell interaction between human endothelial cells and human monocytic U937 cells” value (HUVECs and U937 cells) was “inhibits cell-cell interaction”.

B2: Bst2 decoy-IgG Fc fusion proteins: recombinant chimeric fusion proteins of the extracellular domain of human Bst2 and the Fc region of human IgG (protein)
chain: NSEACRDGLRAVMECRNVTHLLQQELTEAQKGFQDVEAQAATCNHTVMALMASLDAEKAQGQKKVEELEGEITTLNHKLQDASAEVERLRRENQVLSVRIADKKYYPSSQD
modifications: left off: a dimerising Fc or GST
With B2 the “cytokine levels (IL-4, IL-5, IL-13) in lung tissue” value (IL-4, IL-5 and IL-13) was “decreased” and the “inhibition of U937 cell binding to Bst2 decoy coated cell culture plates” value (U937 cells) was “concentration-dependent inhibition”.

B3: PEG-conjugated Bst2 decoy: aldehyde PEG-conjugated human Bst2 decoy sample (conjugate, UniProt Q10589 49-161, looked up)
extracellular domain: NSEACRDGLRAVMECRNVTHLLQQELTEAQKGFQDVEAQAATCNHTVMALMASLDAEKAQGQKKVEELEGEITTLNHKLQDASAEVERLRRENQVLSVRIADKKYYPSSQDSS
modifications: extracellular domain aldehyde PEG conjugate
notes: aldehyde PEG-conjugated human Bst2 decoy sample
For B3, the “metabolic degradation (in vivo stability)” value [2] was “improved metabolic degradation”.

B4: 2-15: anti-Bst2/Damp1 monoclonal antibody; heavy chain variable SEQ ID NO:77, kappa SEQ ID NO:88 (antibody, V domains shown)
VH: MAQSVKESEGRLVTPGTPLTLTCTVSGFSLSNSGMSWVRQAPGKGLEWIGLINSYGTTYYASWAKGRFTISKTSTTVELKITSPTTEDTATYFCARGAGSSYGLWGQGTLVTVSSAS
VL: QAAELVMTQTPSSTSTAVGDTVTIKCQASQSIGSNLAWYQQKPGQPPKILIYSASNLASGVPSRFKGSGSGTEYTLTISGVQREDAATYYCLGSDSSWDTVFGGGTELEILRTV
modifications: 2-15 heavy chain variable region amino acid sequence; 2-15 kappa chain variable region amino acid sequence
With B4 the “number of infiltrating cells in bronchoalveolar lavage (total, neutrophils, eosinophils, lymphocytes)” value (mouse model of asthma) was “did not block immune cell infiltration significantly”.
